Measurements reported in patent US20220010021A1 (Sanofi, published 2022).
Positions count from the first letter of the chain named.

T1: human beta-Klotho (KLB) (human, UniProt Q86Z14 53-997)
T1 construct: also called human KLB
T1 sequence (looked up): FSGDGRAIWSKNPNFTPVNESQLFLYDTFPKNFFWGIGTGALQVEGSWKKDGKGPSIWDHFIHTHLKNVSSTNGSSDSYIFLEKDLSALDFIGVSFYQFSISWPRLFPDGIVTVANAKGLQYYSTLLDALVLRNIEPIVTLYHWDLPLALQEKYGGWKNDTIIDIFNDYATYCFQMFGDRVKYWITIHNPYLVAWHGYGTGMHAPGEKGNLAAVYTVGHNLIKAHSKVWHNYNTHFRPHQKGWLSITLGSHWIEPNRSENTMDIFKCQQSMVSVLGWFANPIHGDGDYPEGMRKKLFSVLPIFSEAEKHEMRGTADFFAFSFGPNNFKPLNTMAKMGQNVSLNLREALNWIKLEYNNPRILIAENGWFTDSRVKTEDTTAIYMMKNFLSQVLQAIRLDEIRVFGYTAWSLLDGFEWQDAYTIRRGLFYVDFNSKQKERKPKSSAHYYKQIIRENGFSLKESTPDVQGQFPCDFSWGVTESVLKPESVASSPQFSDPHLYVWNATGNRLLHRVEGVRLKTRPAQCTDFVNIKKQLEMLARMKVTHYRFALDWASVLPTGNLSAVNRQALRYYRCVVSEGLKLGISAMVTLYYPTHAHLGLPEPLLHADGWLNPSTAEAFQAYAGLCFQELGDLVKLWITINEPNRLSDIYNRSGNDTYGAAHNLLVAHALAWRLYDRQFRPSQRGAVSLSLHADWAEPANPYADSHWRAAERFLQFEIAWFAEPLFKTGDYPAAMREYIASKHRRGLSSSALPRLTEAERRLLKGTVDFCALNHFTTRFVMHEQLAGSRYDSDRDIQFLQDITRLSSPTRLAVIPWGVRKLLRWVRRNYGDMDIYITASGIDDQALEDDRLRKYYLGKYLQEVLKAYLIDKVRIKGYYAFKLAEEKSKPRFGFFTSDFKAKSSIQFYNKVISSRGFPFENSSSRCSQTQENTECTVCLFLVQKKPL

T2: human beta-Klotho (KLB) (human, UniProt Q86Z14 53-997)
T2 construct: Bought protein; also called human KLB; β-Klotho
T2 sequence (looked up): T1 sequence (looked up)

B1: 16H7 variant, light chain S55D (antibody, human IgG4 S228P, lambda, V domains shown)
VH: not shown
VL: SYVLTQPPSVSVAPGQTARITCGGNNIGSESVHWYQQKPGQAPVLVVYDDSDRPDGIPERFSGSNSGNTATLTISRVEAGDEADYYCQVWDGNSDHVVFGGGTKLTVLG
notes: IgG4 backbone
B2: 16H7 light chain variant V32R (antibody, IgG4, V domains shown)
VH: not shown
VL: B1 VL with V32R, D55S
notes: IgG4 backbone
B3: 16H7 light chain variant D50M (antibody, IgG4, V domains shown)
VH: not shown
VL: B1 VL with D50M, D55S
notes: IgG4 backbone
B4: 16H7 variant, light chain S55Y (antibody, IgG4, V domains shown)
VH: not shown
VL: B1 VL with D55Y
notes: IgG4 backbone; copies: 2 + 2
B5: 16H7 light chain variant D50R (antibody, IgG4, V domains shown)
VH: not shown
VL: B1 VL with D50R, D55S
notes: IgG4 backbone
B6: 16H7 light chain variant D49G (antibody, IgG4, V domains shown)
VH: not shown
VL: B1 VL with D49G, D55S
notes: IgG4 backbone
B7: 16H7 light chain variant D49S (antibody, IgG4, V domains shown)
VH: not shown
VL: B1 VL with D49S, D55S
notes: IgG4 backbone
B8: 16H7 variant, light chain S55G (antibody, human IgG4 S228P, lambda, V domains shown)
VH: not shown
VL: B1 VL with D55G
notes: IgG4 backbone
B9: 16H7 variant, light chain S55P (antibody, human IgG4 S228P, lambda, V domains shown)
VH: not shown
VL: B1 VL with D55P
notes: IgG4 backbone
B10: 16H7 light chain variant D50A (antibody, IgG4, V domains shown)
VH: not shown
VL: B1 VL with D50A, D55S
notes: IgG4 backbone
B11: 16H7 light chain variant D50T (antibody, IgG4, V domains shown)
VH: not shown
VL: B1 VL with D50T, D55S
notes: IgG4 backbone
B12: 16H7 variant, light chain S55V (antibody, human IgG4 S228P, lambda, V domains shown)
VH: not shown
VL: B1 VL with D55V
notes: IgG4 backbone
B13: 16H7 light chain variant D49W (antibody, IgG4, V domains shown)
VH: not shown
VL: B1 VL with D49W, D55S
notes: IgG4 backbone
B14: 16H7 variant, light chain S55N (antibody, human IgG4 S228P, lambda, V domains shown)
VH: not shown
VL: B1 VL with D55N
notes: IgG4 backbone
B15: 16H7 variant, light chain S55F (antibody, IgG4, V domains shown)
VH: not shown
VL: B1 VL with D55F
notes: IgG4 backbone; copies: 2 + 2
B16: 16H7 light chain variant D50H (antibody, IgG4, V domains shown)
VH: not shown
VL: B1 VL with D50H, D55S
notes: IgG4 backbone
B17: 16H7 variant, light chain S55T (antibody, human IgG4 S228P, lambda, V domains shown)
VH: not shown
VL: B1 VL with D55T
notes: IgG4 backbone
B18: 16H7 variant, light chain S55H (antibody, human IgG4 S228P, lambda, V domains shown)
VH: not shown
VL: B1 VL with D55H
notes: IgG4 backbone
B19: 16H7 light chain variant D50I (antibody, IgG4, V domains shown)
VH: not shown
VL: B1 VL with D50I, D55S
notes: IgG4 backbone
B20: 16H7 variant, light chain S55I (antibody, human IgG4 S228P, lambda, V domains shown)
VH: not shown
VL: B1 VL with D55I
notes: IgG4 backbone
B21: 16H7 variant, light chain S55R (antibody, IgG4, V domains shown)
VH: not shown
VL: B1 VL with D55R
notes: IgG4 backbone; copies: 2 + 2
B22: 16H7 variant, light chain S55L (antibody, IgG4, V domains shown)
VH: not shown
VL: B1 VL with D55L
notes: IgG4 backbone; copies: 2 + 2
B23: 16H7 variant, light chain S55E (antibody, IgG4, V domains shown)
VH: not shown
VL: B1 VL with D55E
notes: IgG4 backbone; copies: 2 + 2
B24: 16H7 light chain variant D50S (antibody, IgG4, V domains shown)
VH: not shown
VL: B1 VL with D50S, D55S
notes: IgG4 backbone
B25: 16H7 light chain variant D50G (antibody, IgG4, V domains shown)
VH: not shown
VL: B1 VL with D50G, D55S
notes: IgG4 backbone
B26: 16H7 light chain variant D50Q (antibody, IgG4, V domains shown)
VH: not shown
VL: B1 VL with D50Q, D55S
notes: IgG4 backbone
B27: 16H7 light chain variant D50E (antibody, IgG4, V domains shown)
VH: not shown
VL: B1 VL with D50E, D55S
notes: IgG4 backbone
B28: 16H7 light chain variant D50L (antibody, IgG4, V domains shown)
VH: not shown
VL: B1 VL with D50L, D55S
notes: IgG4 backbone
B29: 16H7 light chain variant D50F (antibody, IgG4, V domains shown)
VH: not shown
VL: B1 VL with D50F, D55S
notes: IgG4 backbone
B30: 16H7 light chain variant D50C (antibody, IgG4, V domains shown)
VH: not shown
VL: B1 VL with D50C, D55S
notes: IgG4 backbone

Key:
human beta-Klotho (KLB) [1] = biological target: T1, human beta-Klotho (KLB); test: BLI off-rate screen (Octet), Ab captured via Fc;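 further: antibody supernatants applied at 25 µg/mL, dissociation monitored over 1800 s in D-PBS with 0.1% BSA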
[2] = biological target: human FGFR1c/KLB cell surface receptor complex on iLite FGF21 reporter cells (human, UniProt P11362 22-822; Q86Z14 1-1044); test: cell-based or functional assay
human beta-Klotho (KLB) [3] = biological target: T2, human beta-Klotho (KLB); test: BLI off-rate screening (Octet), crude supernatant;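 further: supernatants tested at 25 µg/mL, dissociation from biosensors recorded in D-PBS with 0.1% BSA over 1800 s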
[4] = biological target: cell surface receptor composed of FGFR1c and co-receptor beta-Klotho (KLB) (human, UniProt P11362 22-822; Q86Z14 1-1044); test: cell-based or functional assay
Wherever Mean E max (%) is given: reference of the scale not given here.
Wherever Mean E max, Luciferase reporter gene assay is given: reference of the scale not given here.

cell surface receptor composed of FGFR1c and co-receptor beta-Klotho (KLB), sequence (P11362 22-822, chain 1 of 2): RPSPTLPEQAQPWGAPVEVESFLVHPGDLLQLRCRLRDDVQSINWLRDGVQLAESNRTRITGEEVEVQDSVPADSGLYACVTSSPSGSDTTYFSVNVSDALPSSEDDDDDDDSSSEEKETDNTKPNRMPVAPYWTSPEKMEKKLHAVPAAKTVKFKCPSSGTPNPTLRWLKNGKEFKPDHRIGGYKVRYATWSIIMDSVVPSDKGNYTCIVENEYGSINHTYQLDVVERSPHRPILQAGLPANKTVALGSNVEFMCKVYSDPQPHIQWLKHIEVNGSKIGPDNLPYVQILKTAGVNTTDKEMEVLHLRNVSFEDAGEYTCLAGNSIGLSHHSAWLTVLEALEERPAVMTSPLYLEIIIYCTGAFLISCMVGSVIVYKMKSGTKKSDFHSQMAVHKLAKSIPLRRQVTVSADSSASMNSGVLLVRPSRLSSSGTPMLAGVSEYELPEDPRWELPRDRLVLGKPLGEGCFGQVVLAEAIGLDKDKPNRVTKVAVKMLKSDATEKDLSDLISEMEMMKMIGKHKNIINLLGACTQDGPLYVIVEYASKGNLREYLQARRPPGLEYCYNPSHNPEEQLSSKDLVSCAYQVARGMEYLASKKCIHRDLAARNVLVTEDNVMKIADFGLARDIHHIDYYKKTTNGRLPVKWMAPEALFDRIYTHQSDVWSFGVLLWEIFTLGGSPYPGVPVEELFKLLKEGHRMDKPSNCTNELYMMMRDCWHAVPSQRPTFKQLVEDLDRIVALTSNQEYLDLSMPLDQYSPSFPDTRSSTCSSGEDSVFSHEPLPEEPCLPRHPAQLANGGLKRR
cell surface receptor composed of FGFR1c and co-receptor beta-Klotho (KLB), sequence (Q86Z14 whole entry, chain 2 of 2): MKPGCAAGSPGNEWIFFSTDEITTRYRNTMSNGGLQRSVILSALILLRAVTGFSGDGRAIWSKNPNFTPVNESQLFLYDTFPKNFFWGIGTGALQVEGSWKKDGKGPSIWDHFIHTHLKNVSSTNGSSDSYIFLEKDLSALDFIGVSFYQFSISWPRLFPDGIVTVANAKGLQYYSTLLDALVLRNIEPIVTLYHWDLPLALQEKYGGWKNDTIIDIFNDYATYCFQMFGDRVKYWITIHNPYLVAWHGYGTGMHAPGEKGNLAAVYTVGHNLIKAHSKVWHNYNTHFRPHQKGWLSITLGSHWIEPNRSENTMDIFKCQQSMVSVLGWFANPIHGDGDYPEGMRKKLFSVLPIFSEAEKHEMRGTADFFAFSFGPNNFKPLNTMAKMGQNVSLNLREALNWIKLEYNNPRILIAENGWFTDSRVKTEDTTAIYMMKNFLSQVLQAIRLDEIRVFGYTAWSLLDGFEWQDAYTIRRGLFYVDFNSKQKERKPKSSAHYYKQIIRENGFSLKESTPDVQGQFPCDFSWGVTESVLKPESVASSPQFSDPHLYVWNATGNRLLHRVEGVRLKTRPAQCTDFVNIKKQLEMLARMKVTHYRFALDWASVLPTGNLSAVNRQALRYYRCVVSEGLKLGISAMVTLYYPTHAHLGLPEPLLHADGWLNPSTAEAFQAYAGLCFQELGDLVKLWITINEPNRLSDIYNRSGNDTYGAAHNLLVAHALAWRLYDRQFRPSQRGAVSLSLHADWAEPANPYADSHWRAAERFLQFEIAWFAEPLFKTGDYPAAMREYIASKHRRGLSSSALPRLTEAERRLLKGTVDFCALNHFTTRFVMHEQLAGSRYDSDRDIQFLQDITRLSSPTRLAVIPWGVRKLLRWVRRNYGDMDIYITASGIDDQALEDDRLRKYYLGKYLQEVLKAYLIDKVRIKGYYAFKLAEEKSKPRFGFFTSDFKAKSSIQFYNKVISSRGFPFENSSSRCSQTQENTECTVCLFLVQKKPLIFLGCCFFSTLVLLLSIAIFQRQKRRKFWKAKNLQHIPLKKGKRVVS
human FGFR1c/KLB cell surface receptor complex on iLite FGF21 reporter cells, sequence (P11362 22-822, chain 1 of 2): as the sequence (P11362 22-822, chain 1 of 2) above
human FGFR1c/KLB cell surface receptor complex on iLite FGF21 reporter cells, sequence (Q86Z14 whole entry, chain 2 of 2): as the sequence (Q86Z14 whole entry, chain 2 of 2) above

Binder	koff (human beta-Klotho (KLB) [1]) [s⁻¹]	Mean E max (%) [2] [%]	Mean EC50 [2] [nM]	koff (human beta-Klotho (KLB) [3]) [s⁻¹]	Mean E max, Luciferase reporter gene assay [4] [%]	Mean EC50, Luciferase reporter gene assay [4] [nM]
B1	3.6e-05	109	0.146			
B2				2.3e-06	112	0.135
B3				0.00013	110	0.125
B4	1.8e-05	113	0.126			
B5				0.00013	110	0.122
B6				0.00029	102	0.102
B7				9.9e-05	98	0.098
B8	3.5e-05	104	0.128			
B9	3.2e-05	99	0.109			
B10				7.6e-05	105	0.211
B11				3.9e-05	104	0.12
B12	4.4e-05	100	0.131			
B13				0.00032	101	0.126
B14	1.7e-05	111	0.141			
B15	2.4e-05	97	0.095			
B16				0.00019	94	0.126
B17	1.3e-05	100	0.109			
B18	4e-06	111	0.122			
B19				8.2e-05	109	0.114
B20	1.3e-05	110	0.133			
B21	4.9e-05	100	0.143			
B22	8.4e-05	97	0.126			
B23	3.8e-05	106	0.141			
B24				4.1e-06	100	0.118
B25				1.7e-05	107	0.136
B26				7.9e-05	107	0.171
B27				0.00016	91	0.123
B28				0.00013	106	0.095
B29				0.0001	113	0.124
B30				3.9e-05	109	0.153
